Data: patent US20200239549A1 (KM BIOLOGICS, published 2020)

B1: antibody D48 human-guinea pig chimeric IgG2κ (antibody, V domains shown)
VH: EVQLVETGGGVVRPGRSLRLSCTTSGFSFSGSAMHWVRQAPGKGLEWVAVISHDGNIIQYHDSVKGRFTISRDNSKNVLLLQMNSLRVDDTAMYYCARDVWLLPATISYAFDFWGQGTMVTVSS
VL: VIWMTQSPPSLSASIGDTVTITCRASQGISNSIAWYQRRPGKAPELLVYAAYRLQSGVPSRLSGSGSGAEYTLTIKNMQPEDFATYYCQQYYDNPLTFGGGTKVEIK
B2: antibody D48 scFv-hFc (Fc fusion, not shown: a dimerising Fc or GST)
scFv: EVQLVETGGGVVRPGRSLRLSCTTSGFSFSGSAMHWVRQAPGKGLEWVAVISHDGNIIQYHDSVKGRFTISRDNSKNVLLLQMNSLRVDDTAMYYCARDVWLLPATISYAFDFWGQGTMVTVSSASTGGGGSGGGGSGGGGSVIWMTQSPPSLSASIGDTVTITCRASQGISNSIAWYQRRPGKAPELLVYAAYRLQSGVPSRLSGSGSGAEYTLTIKNMQPEDFATYYCQQYYDNPLTFGGGTKVEIK
B3: antibody D48 Fab (Fab, V domains shown, not shown: small tags and cut ends; a dimerising Fc or GST)
VH: B1 VH
VL: B1 VL
B4: antibody D48 human-murine chimeric IgG2a (antibody, V domains shown, not shown: a dimerising Fc or GST)
VH: B1 VH
VL: B1 VL

The binders below were run against recombinant gB (gB1-705-strep), ectodomain of wild type gB of HSV-2 strain 333 (HSV-2 strain 333, UniProt P06763 23-727) (assay: not given).
In the case of B1, the Kd is reported as 0.76 nM.

Each binder was assayed against envelope glycoprotein B (gB) of HSV-1 strain KOS (HSV-1 strain KOS, UniProt P06437 31-904) (assay: cell-based or functional assay).
B2 was tested, and the “50% plaque number-reducing activity” value was 1 nM. B1 was tested, and the “50% plaque number-reducing activity” value was 0.94 nM. For B3, the “50% plaque number-reducing activity” value was 2.7 nM. With B4 the “50% plaque number-reducing activity” value was 1.9 nM.

The binders below were run against envelope glycoprotein B (gB) of HSV-2 strain MS (HSV-2 strain MS) (assay: cell-based or functional assay).
With B2 the “50% plaque number-reducing activity” value was 0.12 nM. In the case of B1, the “50% plaque number-reducing activity” value is reported as 7.5 nM. In the case of B3, the “50% plaque number-reducing activity” value is reported as 4.4 nM. For B4, the “50% plaque number-reducing activity” value was 1.6 nM.
